# Test results published in patent publication US20100168002A1 (UNIVERSITY OF BRISTOL, published 2010).
# T1: CEACAM1-Fc soluble receptor construct (human, UniProt P13688 35-320)
# T1 construct: also called CC1-Fc; human CEACAM1-Fc; not shown: Fc part, detected with goat anti-human Fc antibodies
# T1 sequence: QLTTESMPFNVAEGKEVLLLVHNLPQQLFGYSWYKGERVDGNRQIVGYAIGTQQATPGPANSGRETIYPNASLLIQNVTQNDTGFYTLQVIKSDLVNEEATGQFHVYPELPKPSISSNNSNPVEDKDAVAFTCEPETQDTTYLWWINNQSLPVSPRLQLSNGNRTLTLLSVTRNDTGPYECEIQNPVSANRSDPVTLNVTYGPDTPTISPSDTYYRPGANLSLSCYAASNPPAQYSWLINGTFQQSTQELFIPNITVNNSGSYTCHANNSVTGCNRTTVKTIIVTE
# B1: peptide D-8 with deletion of the region 571-632 (D-8Δ) (peptide)
# chain: ASSANTDRIATAELGIAENKKDAQIAKAQANENKDGIAKNQADIIKTLAKVSAANTDRIAKNKAEADASFETLTKNQNTLIEQGEALVEQNKAINQELEGFAAHADVQDKQILQNQADITTNKTAIEQNINRTVANGFEIEKNKAGIATNKQELILQNDRLNRINETNNHQDQKIDQLGYALKEQGQHFNNRISAVERQTAGGIANAIAIATLPSPSRAGEHHVLFGSGYHNGQAAVSLGAAGLSDTGKSTYKIGLSWSDAGGLSGGVGGSYRWK
# notes: Outer limits as deduced for D-8 (527-863); the deletion 571-632 is printed; also called control peptide; not shown: His tag from the pQE30 vector
# B2: recombinant UspA1 fragment D-8 (peptide)
# chain: ASSANTDRIATAELGIAENKKDAQIAKAQANENKDGIAKNQADIQLHDKKITNLGILHSMVARAVGNNTQGVATNKADIAKNQADIANNIKNIYELAQQQDQHSSDIKTLAKVSAANTDRIAKNKAEADASFETLTKNQNTLIEQGEALVEQNKAINQELEGFAAHADVQDKQILQNQADITTNKTAIEQNINRTVANGFEIEKNKAGIATNKQELILQNDRLNRINETNNHQDQKIDQLGYALKEQGQHFNNRISAVERQTAGGIANAIAIATLPSPSRAGEHHVLFGSGYHNGQAAVSLGAAGLSDTGKSTYKIGLSWSDAGGLSGGVGGSYRWK
# notes: Limits deduced: D = 527 (see D-7), 8 = 863 (from 6-8, E659-K863); also called D-8 polypeptide; not shown: His tag from the pQE30 vector
# B3: UspA1 protein of Moraxella catarrhalis strain MX2 (ATCC 25238) (ligand)
# chain: QKVGKATNKISGGDNNTANGTYLTIGGGDYNKTKGRYSTIGGGLFNEATNEYSTIGSGGYNKAKGRYSTIGGGGYNEATNQYSTIGGGDNNTAKGRYSTIGGGGYNEATIENSTVGGGGYNQAKGRNSTVAGGYNNEATGTDSTIAGGRKNQATGKGSFAAGIDNKANADNAVALGNKNTIEGENSVAIGSNNTVKKGQQNVFILGSNTDTTNAQNGSVLLGHNTAGKAATIVNSAEVGGLSLTGFAGASKTGNGTVSVGKKGKERQIVHVGAGEISDTSTDAVNGSQLHALATVVAQNKADIKDLDDEVGLLGEEINSLEGEIFNNQDAIAKNQADIKTLESNVEEGLLDLSGRLIDQKADIDNNINNIYELAQQQDQHSSDIKTLKNNVEEGLLDLSGRLIDQKADLTKDIKALESNVEEGLLDLSGRLIDQKADIAKNQADIAQNQTDIQDLAAYNELQDAYAKQQTEAIDALNKASSANTDRIATAELGIAENKKDAQIAKAQANENKDGIAKNQADIQLHDKKITNLGILHSMVARAVGNNTQGVATNKADIAKNQADIANNIKNIYELAQQQDQHSSDIKTLAKVSAANTDRIAKNKAEADASFETLTKNQNTLIEQGEALVEQNKAINQELEGFAAHADVQDKQILQNQADITTNKTAIEQNINRTVANGFEIEKNKAGIATNKQELILQNDRLNRINETNNHQDQKIDQLGYALKEQGQHFNNRISAVERQTAGGIANAIAIATLPSPSRAGEHHVLFGSGYHNGQAAVSLGAAGLSDTGKSTYKIGLSWSDAGGLSGGVGGSYRWK
# notes: Tested on whole bacteria or in whole cell lysates; migrates at >200 kDa unheated and at circa 92 kDa after boiling; also called MX2 UspA1
# B4: recombinant UspA1 fragment 6-8 (residues E659-K863 of UspA1 of MX2) (peptide)
# chain: ETLTKNQNTLIEQGEALVEQNKAINQELEGFAAHADVQDKQILQNQADITTNKTAIEQNINRTVANGFEIEKNKAGIATNKQELILQNDRLNRINETNNHQDQKIDQLGYALKEQGQHFNNRISAVERQTAGGIANAIAIATLPSPSRAGEHHVLFGSGYHNGQAAVSLGAAGLSDTGKSTYKIGLSWSDAGGLSGGVGGSYRWK
# notes: also called P6-P8; not shown: His tag from the pQE30 vector
# B5: N-terminal recombinant MX2 peptide consisting of amino acids 1 to 449 (peptide)
# chain: MNKIYKVKKNAAGHLVACSEFAKGHTKKAVLGSLLIVGILGMATTASAQKVGKATNKISGGDNNTANGTYLTIGGGDYNKTKGRYSTIGGGLFNEATNEYSTIGSGGYNKAKGRYSTIGGGGYNEATNQYSTIGGGDNNTAKGRYSTIGGGGYNEATIENSTVGGGGYNQAKGRNSTVAGGYNNEATGTDSTIAGGRKNQATGKGSFAAGIDNKANADNAVALGNKNTIEGENSVAIGSNNTVKKGQQNVFILGSNTDTTNAQNGSVLLGHNTAGKAATIVNSAEVGGLSLTGFAGASKTGNGTVSVGKKGKERQIVHVGAGEISDTSTDAVNGSQLHALATVVAQNKADIKDLDDEVGLLGEEINSLEGEIFNNQDAIAKNQADIKTLESNVEEGLLDLSGRLIDQKADIDNNINNIYELAQQQDQHSSDIKTLKNNVEEGLLDLSGR
# Assays:
# [1] = molecular target: T1, CEACAM1-Fc soluble receptor construct; assay: assay not named
# [2] = molecular target: T2, CD33-Fc (UniProt P20138 18-259); assay: blot overlay
# T2 construct: Negative control construct; not shown: Fc part, detected with goat anti-human Fc antibodies
# T2 sequence (P20138 18-259 limits assumed): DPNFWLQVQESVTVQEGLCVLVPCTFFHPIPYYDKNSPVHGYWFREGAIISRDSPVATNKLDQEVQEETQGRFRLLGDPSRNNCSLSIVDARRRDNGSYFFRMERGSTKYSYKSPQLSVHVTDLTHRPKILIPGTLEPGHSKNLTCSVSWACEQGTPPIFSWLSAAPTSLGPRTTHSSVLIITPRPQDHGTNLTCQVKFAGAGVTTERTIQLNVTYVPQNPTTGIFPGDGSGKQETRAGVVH
# [3] = molecular target: T2, CD33-Fc; assay: dot blot overlay of whole bacteria with soluble receptor
# [4] = molecular target: T1, CEACAM1-Fc soluble receptor construct; assay: Western blot overlay with CEACAM1-Fc
binder,measurement,setting,value
B1,binding result,[1],no binding
B2,binding result,[2],no binding
B3,binding result,[3],no binding (tested: 1-2 µg ml^-1)
B4,binding result,[4],no binding
B5,binding result,[1],no binding
